# Measurements: the supplement of paper PMC7125110
# ± gives the standard error. This sample holds only a part of the variants without activity.
# B1: glmS ribozyme (parent)
# chain: AUAAAAGCGCCAGAACUACAGAAAUGUAGUUGACGAGGAGGAGGUUUAUCGAAUUUUCGGCGGAUGCCUCCAAA
# Assays:
# Settings in all cases: with glucosamine-6-phosphate
# glucosamine-6-phosphate [1] = variants of: B1; assay: self-cleavage kobs at 40 uM GlcN6P; higher = faster cleavage; RNA array
# In short: (§1)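 kcat and KM were obtained from weighted Michaelis–Menten fits across concentrations of kobs values. Those came from one- or two-exponential decay fits to per-tile medians normalised to baseline and to non-cleaving reference variants. The variants were barcoded ribozymes transcribed in situ by E. coli RNA polymerase on sequenced MiSeq chips and tracked through a hybridised Cy3 probe at 37 °C, with 40 μM to 10 mM glucosamine-6-phosphate in HEPES/KCl/Mg(OAc)2 buffer flowed in.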
# glucosamine-6-phosphate [2] = variants of: B1; assay: self-cleavage kobs at 160 uM GlcN6P; higher = faster cleavage; RNA array
# In short: as §1
# glucosamine-6-phosphate [3] = variants of: B1; assay: self-cleavage kobs at 640 uM GlcN6P; higher = faster cleavage; RNA array
# In short: as §1
# glucosamine-6-phosphate [4] = variants of: B1; assay: self-cleavage kobs at 2500 uM GlcN6P; higher = faster cleavage; RNA array
# In short: as §1
# glucosamine-6-phosphate [5] = variants of: B1; assay: self-cleavage kobs at 10000 uM GlcN6P; higher = faster cleavage; RNA array
# In short: as §1
Variant,self-cleavage kobs at 40 uM GlcN6P (glucosamine-6-phosphate [1]),self-cleavage kobs at 160 uM GlcN6P (glucosamine-6-phosphate [2]),self-cleavage kobs at 640 uM GlcN6P (glucosamine-6-phosphate [3]),self-cleavage kobs at 2500 uM GlcN6P (glucosamine-6-phosphate [4]),self-cleavage kobs at 10000 uM GlcN6P (glucosamine-6-phosphate [5])
G7C G66U,< 1e-05 s⁻¹,< 1e-05 s⁻¹,< 1e-05 s⁻¹,< 1e-05 s⁻¹,–
G7A G37C A42U,< 1e-05 s⁻¹,–,< 1e-05 s⁻¹,< 1e-05 s⁻¹,< 1e-05 s⁻¹
A39C G59C,< 1e-05 s⁻¹,< 1e-05 s⁻¹,< 1e-05 s⁻¹,< 1e-05 s⁻¹,< 1e-05 s⁻¹
G32U U47G U69G,0.000146 ± 3.4e-05 s⁻¹,–,–,–,0.000404 ± 7.2e-05 s⁻¹
A6U A48U C70U,< 1e-05 s⁻¹,–,–,–,–
A33U C70A,< 1e-05 s⁻¹,–,–,–,–
A42U A53G U56C C71U,< 1e-05 s⁻¹,–,–,–,–
C11G G35C C70G,8.82e-05 ± 4e-05 s⁻¹,–,–,–,–
G13A A15C A33U G35A C58A,< 1e-05 s⁻¹,–,–,–,–
C50U U57A G60U,< 1e-05 s⁻¹,–,–,–,< 1e-05 s⁻¹
C8U A39C G41A A42C C58G A64G G66A,< 1e-05 s⁻¹,–,–,–,< 1e-05 s⁻¹
C16A C70U,5.31e-05 ± 7.6e-06 s⁻¹,0.000117 ± 3.3e-05 s⁻¹,0.000192 ± 2.7e-05 s⁻¹,0.000365 ± 5.1e-05 s⁻¹,0.0015 ± 0.00026 s⁻¹
A36G A42U,< 1e-05 s⁻¹,< 1e-05 s⁻¹,< 1e-05 s⁻¹,–,< 1e-05 s⁻¹
G43C G59C,< 1e-05 s⁻¹,< 1e-05 s⁻¹,< 1e-05 s⁻¹,< 1e-05 s⁻¹,< 1e-05 s⁻¹
G43C U57A C70G,< 1e-05 s⁻¹,–,< 1e-05 s⁻¹,< 1e-05 s⁻¹,–
U30C C50A A53G U69C C70G,5.5e-05 ± 1.9e-05 s⁻¹,–,–,–,–
U31G C61G,< 1e-05 s⁻¹,< 1e-05 s⁻¹,< 1e-05 s⁻¹,–,< 1e-05 s⁻¹
C16U G60C C67A,< 1e-05 s⁻¹,–,–,–,–
G44A U69G,< 1e-05 s⁻¹,–,< 1e-05 s⁻¹,< 1e-05 s⁻¹,< 1e-05 s⁻¹
A15G G37C C58U,< 1e-05 s⁻¹,–,–,–,–
C34G C50G G59A C67G,3.78e-05 ± 1.8e-05 s⁻¹,0.000158 ± 3.7e-05 s⁻¹,–,0.000115 ± 2.3e-05 s⁻¹,–
A36G G63A C67G,< 1e-05 s⁻¹,–,–,–,< 1e-05 s⁻¹
U49C C61A C70U,< 1e-05 s⁻¹,–,–,–,< 1e-05 s⁻¹
G29U A42C C58A C67G,< 1e-05 s⁻¹,–,< 1e-05 s⁻¹,< 1e-05 s⁻¹,–

Variant,self-cleavage kobs at 40 uM GlcN6P (glucosamine-6-phosphate [1]),self-cleavage kobs at 160 uM GlcN6P (glucosamine-6-phosphate [2]),self-cleavage kobs at 640 uM GlcN6P (glucosamine-6-phosphate [3]),self-cleavage kobs at 2500 uM GlcN6P (glucosamine-6-phosphate [4]),self-cleavage kobs at 10000 uM GlcN6P (glucosamine-6-phosphate [5])
G29C G38U A48C,< 1e-05 s⁻¹,–,< 1e-05 s⁻¹,–,< 1e-05 s⁻¹
C10U G13A C68A,< 1e-05 s⁻¹,–,–,–,–
C16A C61U C70A,< 1e-05 s⁻¹,–,–,–,–
C10U C61U,< 1e-05 s⁻¹,–,< 1e-05 s⁻¹,–,< 1e-05 s⁻¹
A6G G43A,< 1e-05 s⁻¹,< 1e-05 s⁻¹,< 1e-05 s⁻¹,< 1e-05 s⁻¹,< 1e-05 s⁻¹
A15G U25A C50G C70U,6.43e-05 ± 1.3e-05 s⁻¹,–,–,–,6.03e-05 ± 1.6e-05 s⁻¹
U31C G32C G35A G59U G66U C71U,< 1e-05 s⁻¹,–,–,< 1e-05 s⁻¹,< 1e-05 s⁻¹
G7C U65G,< 1e-05 s⁻¹,–,< 1e-05 s⁻¹,< 1e-05 s⁻¹,< 1e-05 s⁻¹
G32U G44A,< 1e-05 s⁻¹,–,–,–,–
U47G G60U,< 1e-05 s⁻¹,< 1e-05 s⁻¹,–,< 1e-05 s⁻¹,–
U30A G60U C71U,< 1e-05 s⁻¹,–,–,–,< 1e-05 s⁻¹
U45G A52C U55C C71U,< 1e-05 s⁻¹,–,–,–,–
A39U U56A,0.000199 ± 3.1e-05 s⁻¹,0.000238 ± 8.2e-05 s⁻¹,–,0.00215 ± 0.00066 s⁻¹,0.00963 ± 0.00089 s⁻¹
U31G A33G U56C,< 1e-05 s⁻¹,< 1e-05 s⁻¹,< 1e-05 s⁻¹,< 1e-05 s⁻¹,–
G44C C58U,< 1e-05 s⁻¹,< 1e-05 s⁻¹,< 1e-05 s⁻¹,< 1e-05 s⁻¹,< 1e-05 s⁻¹
A33U G37U C50G U69A,8.34e-05 ± 2.3e-05 s⁻¹,–,–,–,0.000105 ± 2.5e-05 s⁻¹
C58G C68G,3.25e-05 ± 1.1e-05 s⁻¹,6.63e-05 ± 1.4e-05 s⁻¹,9.11e-05 ± 1.1e-05 s⁻¹,9.87e-05 ± 1.7e-05 s⁻¹,1.82e-05 ± 7.1e-06 s⁻¹
G41U C68U C71A,< 1e-05 s⁻¹,–,–,–,–
U47A C70U,0.000803 ± 0.00012 s⁻¹,0.00118 ± 0.00023 s⁻¹,0.0018 ± 0.00029 s⁻¹,0.00221 ± 0.00048 s⁻¹,0.00993 ± 0.0023 s⁻¹
G37A U45C C58U C61G,< 1e-05 s⁻¹,–,–,–,–
G29C G62A,< 1e-05 s⁻¹,–,< 1e-05 s⁻¹,–,–
C34G G37A G44C C50G A53G G66U,< 1e-05 s⁻¹,–,–,–,< 1e-05 s⁻¹
C11G G66U,< 1e-05 s⁻¹,–,–,< 1e-05 s⁻¹,–
A15G C67U,0.000329 ± 5.2e-05 s⁻¹,0.000674 ± 0.00013 s⁻¹,0.00169 ± 0.00028 s⁻¹,0.00538 ± 0.0014 s⁻¹,0.00828 ± 0.0017 s⁻¹

Variant,self-cleavage kobs at 40 uM GlcN6P (glucosamine-6-phosphate [1]),self-cleavage kobs at 160 uM GlcN6P (glucosamine-6-phosphate [2]),self-cleavage kobs at 640 uM GlcN6P (glucosamine-6-phosphate [3]),self-cleavage kobs at 2500 uM GlcN6P (glucosamine-6-phosphate [4]),self-cleavage kobs at 10000 uM GlcN6P (glucosamine-6-phosphate [5])
A42G C61G,< 1e-05 s⁻¹,< 1e-05 s⁻¹,< 1e-05 s⁻¹,–,< 1e-05 s⁻¹
G44A G63C,< 1e-05 s⁻¹,–,< 1e-05 s⁻¹,< 1e-05 s⁻¹,< 1e-05 s⁻¹
C8U U31G G62U,< 1e-05 s⁻¹,–,–,–,–
C16U G41U A53U,3.27e-05 ± 1.6e-05 s⁻¹,–,–,–,0.00071 ± 0.00015 s⁻¹
C16G G38C,< 1e-05 s⁻¹,< 1e-05 s⁻¹,–,–,–
C10G A33U C67G,< 1e-05 s⁻¹,–,–,–,–
U30C A33G G66U C71G,< 1e-05 s⁻¹,–,–,–,< 1e-05 s⁻¹
A42G G43C,< 1e-05 s⁻¹,–,< 1e-05 s⁻¹,–,< 1e-05 s⁻¹
G13C A15U C16G A39C,< 1e-05 s⁻¹,–,–,–,< 1e-05 s⁻¹
C34A G37A A48U,< 1e-05 s⁻¹,–,< 1e-05 s⁻¹,< 1e-05 s⁻¹,< 1e-05 s⁻¹
G40A G43U,< 1e-05 s⁻¹,< 1e-05 s⁻¹,< 1e-05 s⁻¹,–,< 1e-05 s⁻¹
G59U A64U,< 1e-05 s⁻¹,–,< 1e-05 s⁻¹,< 1e-05 s⁻¹,< 1e-05 s⁻¹
G9U A12U C70U,< 1e-05 s⁻¹,–,–,–,–
G38C U56C,< 1e-05 s⁻¹,< 1e-05 s⁻¹,–,< 1e-05 s⁻¹,< 1e-05 s⁻¹
A6U G7A G44U A52U U55C A64U,< 1e-05 s⁻¹,–,< 1e-05 s⁻¹,–,< 1e-05 s⁻¹
G9C G29U U69A,< 1e-05 s⁻¹,< 1e-05 s⁻¹,< 1e-05 s⁻¹,< 1e-05 s⁻¹,< 1e-05 s⁻¹
U55A G62U,< 1e-05 s⁻¹,–,< 1e-05 s⁻¹,< 1e-05 s⁻¹,< 1e-05 s⁻¹
C34U G60U,< 1e-05 s⁻¹,< 1e-05 s⁻¹,< 1e-05 s⁻¹,< 1e-05 s⁻¹,< 1e-05 s⁻¹
G35A A48C U55G,< 1e-05 s⁻¹,–,–,–,–
C10A G43U,< 1e-05 s⁻¹,< 1e-05 s⁻¹,–,–,< 1e-05 s⁻¹
A6C G63A,< 1e-05 s⁻¹,< 1e-05 s⁻¹,< 1e-05 s⁻¹,–,–
A36G A39U G43C C61G,< 1e-05 s⁻¹,–,–,–,–
C16G G40U U65C,< 1e-05 s⁻¹,–,< 1e-05 s⁻¹,–,–
G7C A52U,< 1e-05 s⁻¹,< 1e-05 s⁻¹,< 1e-05 s⁻¹,< 1e-05 s⁻¹,< 1e-05 s⁻¹

Variant,self-cleavage kobs at 40 uM GlcN6P (glucosamine-6-phosphate [1]),self-cleavage kobs at 160 uM GlcN6P (glucosamine-6-phosphate [2]),self-cleavage kobs at 640 uM GlcN6P (glucosamine-6-phosphate [3]),self-cleavage kobs at 2500 uM GlcN6P (glucosamine-6-phosphate [4]),self-cleavage kobs at 10000 uM GlcN6P (glucosamine-6-phosphate [5])
C34G U45A,< 1e-05 s⁻¹,< 1e-05 s⁻¹,< 1e-05 s⁻¹,< 1e-05 s⁻¹,< 1e-05 s⁻¹
C11G A53U,< 1e-05 s⁻¹,–,–,–,–
C8U A33C,< 1e-05 s⁻¹,< 1e-05 s⁻¹,< 1e-05 s⁻¹,< 1e-05 s⁻¹,< 1e-05 s⁻¹
G59C G62U,< 1e-05 s⁻¹,< 1e-05 s⁻¹,–,–,< 1e-05 s⁻¹
A6G C10A G29U,< 1e-05 s⁻¹,–,–,–,–
G7A G32A C58A,< 1e-05 s⁻¹,–,–,–,< 1e-05 s⁻¹
G26U U46G,0.000306 ± 7.3e-05 s⁻¹,–,–,–,0.00888 ± 0.0026 s⁻¹
U31G U54G C67G C68A C70G,4.46e-05 ± 2.2e-05 s⁻¹,–,–,0.000243 ± 6.9e-05 s⁻¹,–
A6C A48U,< 1e-05 s⁻¹,–,–,< 1e-05 s⁻¹,–
C34A C50U,< 1e-05 s⁻¹,< 1e-05 s⁻¹,< 1e-05 s⁻¹,< 1e-05 s⁻¹,< 1e-05 s⁻¹
G29A A36U,< 1e-05 s⁻¹,–,< 1e-05 s⁻¹,< 1e-05 s⁻¹,–
G44U A48U,< 1e-05 s⁻¹,< 1e-05 s⁻¹,< 1e-05 s⁻¹,< 1e-05 s⁻¹,–
U46G U47G C67A,7.27e-05 ± 2e-05 s⁻¹,–,–,–,0.0021 ± 0.00039 s⁻¹
C10U C16U G38A A48G,< 1e-05 s⁻¹,–,–,–,< 1e-05 s⁻¹
A6U C10A G41C U46A C70A,< 1e-05 s⁻¹,–,–,< 1e-05 s⁻¹,< 1e-05 s⁻¹
A36G C58U C70U,< 1e-05 s⁻¹,< 1e-05 s⁻¹,< 1e-05 s⁻¹,–,–
U55C C61U,< 1e-05 s⁻¹,–,–,–,–
U54G U65G C67G,3.01e-05 ± 1.5e-05 s⁻¹,–,–,–,0.00213 ± 0.00029 s⁻¹
U30A G43C,< 1e-05 s⁻¹,–,< 1e-05 s⁻¹,–,< 1e-05 s⁻¹
A15G G43U A48C,< 1e-05 s⁻¹,–,–,< 1e-05 s⁻¹,–
A6G G40U A52G U65G,< 1e-05 s⁻¹,–,–,–,< 1e-05 s⁻¹
G9C A12C A14U U49G,< 1e-05 s⁻¹,–,–,< 1e-05 s⁻¹,–
A15C A33U,< 1e-05 s⁻¹,< 1e-05 s⁻¹,–,–,–
